Our source for the protein production values is a protein production outcome set (Wang et al. 2014).

The data set can be described thus: label from the status in PepcDB records.
For the sequence “MSGLDPARSILQGSAEGPVIATGEALSFWGGVDPATGCVIDVHHPLHGVPLTGSILMMPSSRGSCTGSGVLLDLVLTGRGPAALVFSEPEDVLTLGALIASEMFGKPLPVL”, the protein production entry is on record as “failed”.

For the sequence “MVNVDGKREEDEEVIEVEGMGANKSARMLERLHVVHQYVARWVYSHGIPFNAIANDDLRRMLEVAGQFGPGVTPPSQYQLREPLLKEEVVRMKGLMEEQEDEWRVNGCSVTTDSWSDRKRRSIMNLCINCKEGTMFLSSKDCFDDSHTGEYIFAYVNEYCIKNLGGDHVVQVVTNNATNNITAAKLLKEVRPTIFWTFCATHTINLMVEGISKLAMSDEIVKMAKAFTIFIYAHHQTLSMMRSFTKRRDIVRPGIIGFASAFRTLKSLVEKEENLKVKRKKKKKLSKATTMVVL”, the protein production entry is “failed”.

With “MGNQLAIQMNSDEDDDFDSSDNELGFNVINFTVNAMDLRSDYCSSEMPVIRGKPDLVKFQKTDMYKEIQASSGLVSNPNNRWNLVHALQQRENGLASPHSASFSKNQQRYISNLYIPNKKATRLMSLESKIFVTKFNRSGSKLLTACQDGFVRIYDGAKGTYHLLNRIRARDVEWSIIDADFSPNGEHFAYSTWSRSLFIMPVNGGEDDCQWIDVNGLPSHRLAIFSLRYSPTGDKIIGGSNNSTVIVTDIRTRNTQILRTHRMPGKDVNSVCFLHDKDPNVIIAGCDDGLLKVYDLRTTFRSRDLSKSVASFIGHYDGITYIDSRNDGYHVLSNSKDQSIKIWDIRQPSNMRNRSRSRQQVDPTTWDYRWNRVPREFYNPHKPLEGDSSIMTYRGHRVTKTLLRAKFSPMEQTGQRYIYTGCATGRIIIYDVLTGKIQEAIEGHRTVIRDLDWHPDRSEIVSGSWDTHVHLNNFSRSNANRPVKRSHSSDHDKKPLRRSRRLANRNVTPD”, the protein production entry is given as “failed”.

As to “MSKHTKFSPEVRDRAIRMVYEVRESRTSQWAAIEAVASKIGCTAQTLSSWIRKAAAPAAPSASGTDARVKELEREVRELKRANEILKVASAFSAQAELDRRLK”, the protein production entry is “failed”.

With “MRERRFTSDAAHELRSPLTALKVQTEVAQLSDDDPQARKKALLQLHSGIDRATRLVDQLLTLSRLDSLDNLQDVAEIPLEDLLQSSVMDIYHTAQQAKIDVRLTLNAHSIKRTGQPLLLSLLVRNLLDNAVRYSPQGSVVDVTLNADNFIVRDNGPGVTPEALARIGERFYRPPGQTATGSGLGLSIVQRIAKLHGMNVEFGNAEQGGFEAKVSW”, the protein production result is “not failed”.

Consider “MTKGSRKSRRRQQAPTKARPEQGRSAPAQRPAPTFRLRTAALLAIGSGALFFLLASGLSWFKTSEISSPPTREAELSFVGSQACSGCHQAETRLWQSSQHRHAMDHATDTSVRGDFNDAAFEYAGTRSRFFRKDRKFLIETDGPDGKLATFEVKYAFGVDPLQQYLIEFPDGRIQALSIAWDTRPKDQGGQRWFHLYPDAAVTSSDPLHWTRLNQNWNFMCAECHSTNVHKNYDAARDRFATSFSEISVGCEACHGAGSRHVSWAQQKPAARGPDNGLLVRFDERSGITWSADAETMTPKRSAPPATLRKEVEVCGRCHARRGQFSEDWRPGKSLSETHRVSLLDRQSFHADGQMRDDEETYNYASFKQSKMFAKGVTCSDCHDPHSAALKAPGDGVCAQCHAPAKYEAAAHRQHANVSPPPGCASCHMPERRYMVVDRRHDHGFRIPRPDLSVQLGTPNACNDCHRDKPAAWAARQVETWFGPQRLGFQAYARAFHAAWSEAADAQALLSAVVANDAPGIVRAGALAELPAPDADLIRRALSDPDPLVRLGALDALEGIPADQLWTLASAQLTDPVRGVRIRAAELLASVPPSRQPAADRNKFTQAAAEFVAAQKLNADRPDARAALGNFLARQAGAAEAEAEYRAALRLDPSFPPAAINLSDLYRQLGRDSDGERILRETLTKSGQNASLHHALGLVLVREKRADEALGELRQAAELDPGQPRYAYVYAVGLHSSGRRDDALAVLRTSLQVHPNDRESVSAALALSREKGDSASALGYAEQLSRLMPGNREIEDLIKQLKQ”, for which the protein production entry is “failed”.
